{
  "source": "the supplement of paper PMC5998384",
  "key": {"HeLa Kyoto [1]": {"test_system": "HeLa Kyoto", "assay": "solubility in G1/S (NP-40 vs SDS abundance) (log2 ratio); higher = more soluble", "settings": "cell cycle stage: G1/S"}, "HeLa Kyoto [2]": {"test_system": "HeLa Kyoto", "assay": "melting temperature (median over replicates), in situ; higher = more thermally stable"}, "HeLa Kyoto [3]": {"test_system": "HeLa Kyoto", "assay": "solubility change mitosis vs G1/S (difference of NP-40 vs SDS log2 ratios) (log2 ratio difference); higher = more soluble in mitosis"}, "HeLa Kyoto [4]": {"test_system": "HeLa Kyoto", "assay": "thermal stability score vs G1/S (z-score of summed log2 fold changes over temperatures); higher = more thermally stable than in G1/S"}, "[5]": {"settings": "cell cycle stage: early G1 (4.5 h after nocodazole release)"}},
  "data": [
    {"sequence": "MAVPFVEDWDLVQTLGEGAYGEVQLAVNRVTEEAVAVKIVDMKRAVDCPENIKKEICINKMLNHENVVKFYGHRREGNIQYLFLEYCSGGELFDRIEPDIGMPEPDAQRFFHQLMAGVVYLHGIGITHRDIKPENLLLDERDNLKISDFGLATVFRYNNRERLLNKMCGTLPYVAPELLKRREFHAEPVDVWSCGIVLTAMLAGELPWDQPSDSCQEYSDWKEKKTYLNPWKKIDSAPLALLHKILVENPSARITIPDIKKDRWYNKPLKKGAKRPRVTSGGVSESPSGFSKHIQSNLDFSPVNSASSEENVKYSSSQPEPRTGLSLWDTSPSYIDKLVQGISFSQPTCPDHMLLNSQLLGTPGSSQNPWQRLVKRMTRFFTKLDADKSYQCLKETCEKLGYQWKKSCMNQVTISTTDRRNNKLIFKVNLLEMDDKILVDFRLSKGDGLEFKRHFLKIKGKLIDIVSSQKIWLPAT [CHEK1]", "values": [
      {"measurement": "solubility in G1/S (log2)", "setting": "HeLa Kyoto [1]", "result": 0.104},
      {"measurement": "melting temperature", "setting": "HeLa Kyoto [2]; cell cycle stage: G1/S", "result": 51.7, "unit": "°C"},
      {"measurement": "melting temperature", "setting": "HeLa Kyoto [2]; cell cycle stage: mitosis", "result": 51.9, "unit": "°C"},
      {"measurement": "solubility change mitosis (log2)", "setting": "HeLa Kyoto [3]", "result": -0.07},
      {"measurement": "thermal stability score", "setting": "HeLa Kyoto [4]; [5]", "result": 1.82},
      {"measurement": "thermal stability score", "setting": "HeLa Kyoto [4]; cell cycle stage: mitosis", "result": 1.62}
    ]},
    {"sequence": "MAVPGVGLLTRLNLCARRRTRVQRPIVRLLSCPGTVAKDLRRDEQPSGSVETGFEDKIPKRRFSEMQNERREQAQRTVLIHCPEKISENKFLKYLSQFGPINNHFFYESFGLYAVVEFCQKESIGSLQNGTHTPSTAMETAIPFRSRFFNLKLKNQTSERSRVRSSNQLPRSNKQLFELLCYAESIDDQLNTLLKEFQLTEENTKLRYLTCSLIEDMAAAYFPDCIVRPFGSSVNTFGKLGCDLDMFLDLDETRNLSAHKISGNFLMEFQVKNVPSERIATQKILSVLGECLDHFGPGCVGVQKILNARCPLVRFSHQASGFQCDLTTNNRIALTSSELLYIYGALDSRVRALVFSVRCWARAHSLTSSIPGAWITNFSLTMMVIFFLQRRSPPILPTLDSLKTLADAEDKCVIEGNNCTFVRDLSRIKPSQNTETLELLLKEFFEYFGNFAFDKNSINIRQGREQNKPDSSPLYIQNPFETSLNISKNVSQSQLQKFVDLARESAWILQQEDTDRPSISSNRPWGLVSLLLPSAPNRKSFTKKKSNKFAIETVKNLLESLKGNRTENFTKTSGKRTISTQT [MTPAP]", "values": [
      {"measurement": "solubility in G1/S (log2)", "setting": "HeLa Kyoto [1]", "result": -0.331},
      {"measurement": "melting temperature", "setting": "HeLa Kyoto [2]; cell cycle stage: G1/S", "result": 51, "unit": "°C"},
      {"measurement": "melting temperature", "setting": "HeLa Kyoto [2]; cell cycle stage: mitosis", "result": 49.8, "unit": "°C"},
      {"measurement": "solubility change mitosis (log2)", "setting": "HeLa Kyoto [3]", "result": 0.114},
      {"measurement": "thermal stability score", "setting": "HeLa Kyoto [4]; [5]", "result": 0.65},
      {"measurement": "thermal stability score", "setting": "HeLa Kyoto [4]; cell cycle stage: mitosis", "result": 1.8}
    ]},
    {"sequence": "MAVQESAAQLSMTLKVQEYPTLKVPYETLNKRFRAAQKNIDRETSHVTMVVAELEKTLSGCPAVDSVVSLLDGVVEKLSVLKRKAVESIQAEDESAKLCKRRIEHLKEHSSDQPAAASVWKRKRMDRMMVEHLLRCGYYNTAVKLARQSGIEDLVNIEMFLTAKEVEESLERRETATCLAWCHDNKSRLRKMKSCLEFSLRIQEFIELIRQNKRLDAVRHARKHFSQAEGSQLDEVRQAMGMLAFPPDTHISPYKDLLDPARWRMLIQQFRYDNYRLHQLGNNSVFTLTLQAGLSAIKTPQCYKEDGSSKSPDCPVCSRSLNKLAQPLPMAHCANSRLVCKISGDVMNENNPPMMLPNGYVYGYNSLLSIRQDDKVVCPRTKEVFHFSQAEKVYIM [MAEA]", "values": [
      {"measurement": "solubility in G1/S (log2)", "setting": "HeLa Kyoto [1]", "result": -0.0777},
      {"measurement": "melting temperature", "setting": "HeLa Kyoto [2]; cell cycle stage: G1/S", "result": 50.2, "unit": "°C"},
      {"measurement": "melting temperature", "setting": "HeLa Kyoto [2]; cell cycle stage: mitosis", "result": 49.3, "unit": "°C"},
      {"measurement": "solubility change mitosis (log2)", "setting": "HeLa Kyoto [3]", "result": -0.0756},
      {"measurement": "thermal stability score", "setting": "HeLa Kyoto [4]; [5]", "result": -0.838},
      {"measurement": "thermal stability score", "setting": "HeLa Kyoto [4]; cell cycle stage: mitosis", "result": -0.615}
    ]},
    {"sequence": "MAVRALKLLTTLLAVVAAASQAEVESEAGWGMVTPDLLFAEGTAAYARGDWPGVVLSMERALRSRAALRALRLRCRTQCAADFPWELDPDWSPSPAQASGAAALRDLSFFGGLLRRAACLRRCLGPPAAHSLSEEMELEFRKRSPYNYLQVAYFKINKLEKAVAAAHTFFVGNPEHMEMQQNLDYYQTMSGVKEADFKDLETQPHMQEFRLGVRLYSEEQPQEAVPHLEAALQEYFVAYEECRALCEGPYDYDGYNYLEYNADLFQAITDHYIQVLNCKQNCVTELASHPSREKPFEDFLPSHYNYLQFAYYNIGNYTQAVECAKTYLLFFPNDEVMNQNLAYYAAMLGEEHTRSIGPRESAKEYRQRSLLEKELLFFAYDVFGIPFVDPDSWTPEEVIPKRLQEKQKSERETAVRISQEIGNLMKEIETLVEEKTKESLDVSRLTREGGPLLYEGISLTMNSKLLNGSQRVVMDGVISDHECQELQRLTNVAATSGDGYRGQTSPHTPNEKFYGVTVFKALKLGQEGKVPLQSAHLYYNVTEKVRRIMESYFRLDTPLYFSYSHLVCRTAIEEVQAERKDDSHPVHVDNCILNAETLVCVKEPPAYTFRDYSAILYLNGDFDGGNFYFTELDAKTVTAEVQPQCGRAVGFSSGTENPHGVKAVTRGQRCAIALWFTLDPRHSERDRVQADDLVKMLFSPEEMDLSQEQPLDAQQGPPEPAQESLSGSESKPKDEL [P3H1]", "values": [
      {"measurement": "solubility in G1/S (log2)", "setting": "HeLa Kyoto [1]", "result": -0.0649},
      {"measurement": "melting temperature", "setting": "HeLa Kyoto [2]; cell cycle stage: G1/S", "result": 53.2, "unit": "°C"},
      {"measurement": "melting temperature", "setting": "HeLa Kyoto [2]; cell cycle stage: mitosis", "result": 54.3, "unit": "°C"},
      {"measurement": "solubility change mitosis (log2)", "setting": "HeLa Kyoto [3]", "result": -0.0228},
      {"measurement": "thermal stability score", "setting": "HeLa Kyoto [4]; [5]", "result": 1.77},
      {"measurement": "thermal stability score", "setting": "HeLa Kyoto [4]; cell cycle stage: mitosis", "result": 3.07}
    ]},
    {"sequence": "MAVSESQLKKMVSKYKYRDLTVRETVNVITLYKDLKPVLDSYVFNDGSSRELMNLTGTIPVPYRGNTYNIPICLWLLDTYPYNPPICFVKPTSSMTIKTGKHVDANGKIYLPYLHEWKHPQSDLLGLIQVMIVVFGDEPPVFSRPISASYPPYQATGPPNTSYMPGMPGGISPYPSGYPPNPSGYPGCPYPPGGPYPATTSSQYPSQPPVTTVGPSRDGTISEDTIRASLISAVSDKLRWRMKEEMDRAQAELNALKRTEEDLKKGHQKLEEMVTRLDQEVAEVDKNIELLKKKDEELSSALEKMENQSENNDIDEVIIPTAPLYKQILNLYAEENAIEDTIFYLGEALRRGVIDLDVFLKHVRLLSRKQFQLRALMQKARKTAGLSDLY [TSG101]", "values": [
      {"measurement": "solubility in G1/S (log2)", "setting": "HeLa Kyoto [1]", "result": 0.617},
      {"measurement": "melting temperature", "setting": "HeLa Kyoto [2]; cell cycle stage: G1/S", "result": 50.7, "unit": "°C"},
      {"measurement": "melting temperature", "setting": "HeLa Kyoto [2]; cell cycle stage: mitosis", "result": 50.2, "unit": "°C"},
      {"measurement": "solubility change mitosis (log2)", "setting": "HeLa Kyoto [3]", "result": -0.0618},
      {"measurement": "thermal stability score", "setting": "HeLa Kyoto [4]; [5]", "result": -0.385},
      {"measurement": "thermal stability score", "setting": "HeLa Kyoto [4]; cell cycle stage: mitosis", "result": -0.589}
    ]},
    {"sequence": "MAVSVTPIRDTKWLTLEVCREFQRGTCSRPDTECKFAHPSKSCQVENGRVIACFDSLKGRCSRENCKYLHPPPHLKTQLEINGRNNLIQQKNMAMLAQQMQLANAMMPGAPLQPVPMFSVAPSLATNASAAAFNPYLGPVSPSLVPAEILPTAPMLVTGNPGVPVPAAAAAAAQKLMRTDRLEVCREYQRGNCNRGENDCRFAHPADSTMIDTNDNTVTVCMDYIKGRCSREKCKYFHPPAHLQAKIKAAQYQVNQAAAAQAAATAAAMTQSAVKSLKRPLEATFDLGIPQAVLPPLPKRPALEKTNGATAVFNTGIFQYQQALANMQLQQHTAFLPPVPMVHGATPATVSAATTSATSVPFAATATANQIPIISAEHLTSHKYVTQM [MBNL1]", "values": [
      {"measurement": "solubility in G1/S (log2)", "setting": "HeLa Kyoto [1]", "result": 0.11},
      {"measurement": "melting temperature", "setting": "HeLa Kyoto [2]; cell cycle stage: G1/S", "result": 52.3, "unit": "°C"},
      {"measurement": "melting temperature", "setting": "HeLa Kyoto [2]; cell cycle stage: mitosis", "result": 52.2, "unit": "°C"},
      {"measurement": "solubility change mitosis (log2)", "setting": "HeLa Kyoto [3]", "result": 0.353},
      {"measurement": "thermal stability score", "setting": "HeLa Kyoto [4]; [5]", "result": -3.27},
      {"measurement": "thermal stability score", "setting": "HeLa Kyoto [4]; cell cycle stage: mitosis", "result": -3.37}
    ]}
  ]
}
